Data: patent US20260078341A1 (published 2026)
Changes are numbered by the printed parent chain.

B1: P2-4BBZ CAR (other)
chain: DYKDDDDKEVQLVQSGAEVKKPGSSVKVSCKASGGTFSSYAISWVRQAPGQGLEWMGGIIPIFGTANYAQKFQGRVTITADESTSTAYMELSSLRSEDTAVYYCAREEGPYCSSTSCYAAFDIWGQGTLVTVSSGGGGSGGGGSGGGGSQSVLTQDPAASVALGQTVKITCQGDSLRSYFASWYQQKPGQAPTLVMYARNDRPAGVPDRFSGSKSGTSASLAISGLQSEDEADYYCAAWDDSLNGYLFGAGTKLTVLTTTPAPRPPTPAPTIASQPLSLRPEACRPAAGGAVHTRGLDFACDIYIWAPLAGTCGVLLLSLVITLYCKRGRKKLLYIFKQPFMRPVQTTQEEDGCSCRFPEEEEGGCELRVKFSRSADAPAYKQGQNQLYNELNLGRREEYDVLDKRRGRDPEMGGKPRRKNPQEGLYNELQKDKMAEAYSEIGMKGERRRGKGHDGLYQGLSTATKDTYDALHMQALPPR
B2: C10-BBZ CAR (other)
chain: B1 chain with A119G, A159V
B3: P3-5BBZ CAR (other)
chain: B1 chain with M56V, T77K, T84A, A119G, A159V, F180L, M196T

biological target: T1, EGFR on cells (tumor lines, primary cell lines, K562 cells electroporated with EGFR mRNA, A431) (UniProt P00533 25-1210); test: not stated; affinity of the scFv

| Kd | Binder |
| --- | --- |
| 15.4 nM | B1 |
| 264 nM | B2 |
| 88.2 nM | B3 |

biological target: T1, EGFR on cells (tumor lines, primary …); test: not stated; affinity of the scFv; remark: another data set of the same source

| Kd | Binder |
| --- | --- |
| 15.4 nM | B1 |
| 264 nM | B2 |
| 88.2 nM | B3 |
